Measurements: the supplement of paper PMC5998384

Columns and labels:
[1] = system: HeLa Kyoto; assay: solubility in G1/S (NP-40 vs SDS abundance) (log2 ratio); higher = more soluble; conditions: cell cycle stage: G1/S
[2] = system: HeLa Kyoto; assay: melting temperature (median over replicates), in situ; higher = more thermally stable
[3] = system: HeLa Kyoto; assay: solubility change mitosis vs G1/S (difference of NP-40 vs SDS log2 ratios) (log2 ratio difference); higher = more soluble in mitosis
[4] = system: HeLa Kyoto; assay: thermal stability score vs G1/S (z-score of summed log2 fold changes over temperatures); higher = more thermally stable than in G1/S
[5] = cell cycle stage: early G1 (4.5 h after nocodazole release)
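For melting temperature (median over replicates), in situ in this document: HeLa Kyoto cells synchronized by double thymidine or nocodazole block, proteins quantified by TMT10plex mass spectrometry, three independent biological replicates.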
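For solubility change mitosis vs G1/S (difference of NP-40 vs SDS log2 ratios) in this document: synchronized HeLa Kyoto cells (double thymidine block for G1/S, nocodazole release for mitosis), protein amounts in NP-40 versus SDS lysates quantified by mass spectrometry, three biological replicates.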
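For solubility in G1/S (NP-40 vs SDS abundance) in this document: HeLa Kyoto cells arrested at G1/S by double thymidine block, proteins quantified by TMT10plex mass spectrometry in mild NP-40 versus SDS extracts, three biological replicates.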
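For thermal stability score vs G1/S (z-score of summed log2 fold changes over temperatures) in this document: synchronized HeLa Kyoto cells, proteins quantified by TMT10plex mass spectrometry, three biological replicates, mitosis taken 0.5 h after nocodazole release, G1/S directly after double thymidine block.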

Sequence | solubility in G1/S (log2) [1] | melting temperature ([2]; cell cycle stage: G1/S) [°C] | melting temperature ([2]; cell cycle stage: mitosis) [°C] | solubility change mitosis (log2) [3] | thermal stability score [4, 5] | thermal stability score ([4]; cell cycle stage: mitosis)
MVLLAAAVCTKAGKAIVSRQFVEMTRTRIEGLLAAFPKLMNTGKQHTFVETESVRYVYQPMEKLYMVLITTKNSNILEDLETLRLFSRVIPEYCRALEENEISEHCFDLIFAFDEIVALGYRENVNLAQIRTFTEMDSHEEKVFRAVRETQEREAKAEMRRKAKELQQARRDAERQGKKAPGFGGFGSSAVSGGSTAAMITETIIETDKPKVAPAPARPSGPSKALKLGAKGKEVDNFVDKLKSEGETIMSSSMGKRTSEATKMHAPPINMESVHMKIEEKITLTCGRDGGLQNMELHGMIMLRISDDKYGRIRLHVENEDKKGVQLQTHPNVDKKLFTAESLIGLKNPEKSFPVNSDVGVLKWRLQTTEESFIPLTINCWPSESGNGCDVNIEYELQEDNLELNDVVITIPLPSGVGAPVIGEIDGEYRHDSRRNTLEWCLPVIDAKNKSGSLEFSIAGQPNDFFPVQVSFVSKKNYCNIQVTKVTQVDGNSPVRFSTETTFLVDKYEIL [ARCN1] | -0.104 | 51.7 | 51.8 | -0.0987 | 1.07 | 0.0434
MVLLESEQFLTELTRLFQKCRTSGSVYITLKKYDGRTKPIPKKGTVEGFEPADNKCLLRATDGKKKISTVVSSKEVNKFQMAYSNLLRANMDGLKKRDKKNKTKKTKAAAAAAAAAPAAAATAPTTAATTAATAAQ [SRP14] | 0.1 | 53.6 | 52.6 | 0.409 | -2.96 | -4.66
MVLLRVLILLLSWAAGMGGQYGNPLNKYIRHYEGLSYNVDSLHQKHQRAKRAVSHEDQFLRLDFHAHGRHFNLRMKRDTSLFSDEFKVETSNKVLDYDTSHIYTGHIYGEEGSFSHGSVIDGRFEGFIQTRGGTFYVEPAERYIKDRTLPFHSVIYHEDDINYPHKYGPQGGCADHSVFERMRKYQMTGVEEVTQIPQEEHAANGPELLRKKRTTSAEKNTCQLYIQTDHLFFKYYGTREAVIAQISSHVKAIDTIYQTTDFSGIRNISFMVKRIRINTTADEKDPTNPFRFPNIGVEKFLELNSEQNHDDYCLAYVFTDRDFDDGVLGLAWVGAPSGSSGGICEKSKLYSDGKKKSLNTGIITVQNYGSHVPPKVSHITFAHEVGHNFGSPHDSGTECTPGESKNLGQKENGNYIMYARATSGDKLNNNKFSLCSIRNISQVLEKKRNNCFVESGQPICGNGMVEQGEECDCGYSDQCKDECCFDANQPEGRKCKLKPGKQCSPSQGPCCTAQCAFKSKSEKCRDDSDCAREGICNGFTALCPASDPKPNFTDCNRHTQVCINGQCAGSICEKYGLEECTCASSDGKDDKELCHVCCMKKMDPSTCASTGSVQWSRHFSGRTITLQPGSPCNDFRGYCDVFMRCRLVDADGPLARLKKAIFSPELYENIAEWIVAHWWAVLLMGIALIMLMAGFIKICSVHTPSSNPKLPPPKPLPGTLKRRRPPQPIQQPQRQRPRESYQMGHMRR [ADAM10] | -0.0721 | 53.3 | 53.9 | -0.0492 | 0.749 | 1.37
MVLLTMIARVADGLPLAASMQEDEQSGRDLQQYQSQAKQLFRKLNEQSPTRCTLEAGAMTFHYIIEQGVCYLVLCEAAFPKKLAFAYLEDLHSEFDEQHGKKVPTVSRPYSFIEFDTFIQKTKKLYIDSRARRNLGSINTELQDVQRIMVANIEEVLQRGEALSALDSKANNLSSLSKKYRQDAKYLNMRSTYAKLAAVAVFFIMLIVYVRFWWL [SEC22B] | -0.0184 | 51.3 | 52.2 | 0.0289 | 4.24 | 5.81
MVLWILWRPFGFSGRFLKLESHSITESKSLIPVAWTSLTQMLLEAPGIFLLGQRKRFSTMPETETHERETELFSPPSDVRGMTKLDRTAFKKTVNIPVLKVRKEIVSKLMRSLKRAALQRPGIRRVIEDPEDKESRLIMLDPYKIFTHDSFEKAELSVLEQLNVSPQISKYNLELTYEHFKSEEILRAVLPEGQDVTSGFSRIGHIAHLNLRDHQLPFKHLIGQVMIDKNPGITSAVNKINNIDNMYRNFQMEVLSGEQNMMTKVRENNYTYEFDFSKVYWNPRLSTEHSRITELLKPGDVLFDVFAGVGPFAIPVAKKNCTVFANDLNPESHKWLLYNCKLNKVDQKVKVFNLDGKDFLQGPVKEELMQLLGLSKERKPSVHVVMNLPAKAIEFLSAFKWLLDGQPCSSEFLPIVHCYSFSKDANPAEDVRQRAGAVLGISLEACSSVHLVRNVAPNKEMLCITFQIPASVLYKNQTRNPENHEDPPLKRQRTAEAFSDEKTQIVSNT [TRMT5] | 0.289 | 57.7 | 56.1 | -0.0856 | -0.613 | -0.00215
MVMAYFVENFWGEKNSGFDVLYHNMKHGQISTKELADFVRERATIEEAYSRSMTKLAKSASNYSQLGTFAPVWDVFKTSTEKLANCHLDLVRKLQELIKEVQKYGEEQVKSHKKTKEEVAGTLEAVQTIQSITQALQKSKENYNAKCVEQERLKKEGATQREIEKAAVKSKKATDTYKLYVEKYALAKADFEQKMTETAQKFQDIEETHLIHIKEIIGSLSNAIKEIHLQIGQVHEEFINNMANTTVESLIQKFAESKGTGKERPGLIEFEECDTASAVEGIKPRKRKTFALPGIIKKEKDAESVECPDADSLNIPDVDEEGYSIKPETNQNDTKENHFYSSSDSDSEDEEPKKYRIEIKPMHPNNSHHTMASLDELKVSIGNITLSPAISRHSPVQMNRNLSNEELTKSKPSAPPNEKGTSDLLAWDPLFGPSLDSSSSSSLTSSSSARPTTPLSVGTIVPPPRPASRPKLTSGKLSGINEIPRPFSPPVTSNTSPPPAAPLARAESSSSISSSASLSAANTPTVGVSRGPSPVSLGNQDTLPVAVALTESVNAYFKGADPTKCIVKITGDMTMSFPSGIIKVFTSNPTPAVLCFRVKNISRLEQILPNAQLVFSDPSQCDSNTKDFWMNMQAVTVYLKKLSEQNPAASYYNVDVLKYQVSSNGIQSTPLNLATYWKCSASTTDLRVDYKYNPEAMVAPSVLSNIQVVVPVDGGVTNMQSLPPAIWNAEQMKAFWKLSSISEKSENGGSGSLRAKFDLSEGPSKPTTLAVQFLSEGSTLSGVDFELVGTGYRLSLIKKRFATGRYLADC [FCHO2] | -0.0326 | 50.9 | 50.9 | 0.0613 | -0.516 | 0.0307
MVMKASVDDDDSGWELSMPEKMEKSNTNWVDITQDFEEACRELKLGELLHDKLFGLFEAMSAIEMMDPKMDAGMIGNQVNRKVLNFEQAIKDGTIKIKDLTLPELIGIMDTCFCCLITWLEGHSLAQTVFTCLYIHNPDFIEDPAMKAFALGILKICDIAREKVNKAAVFEEEDFQSMTYGFKMANSVTDLRVTGMLKDVEDDMQRRVKSTRSRQGEERDPEVELEHQQCLAVFSRVKFTRVLLTVLIAFTKKETSAVAEAQKLMVQAADLLSAIHNSLHHGIQAQNDTTKGDHPIMMGFEPLVNQRLLPPTFPRYAKIIKREEMVNYFARLIDRIKTVCEVVNLTNLHCILDFFCEFSEQSPCVLSRSLLQTTFLVDNKKVFGTHLMQDMVKDALRSFVSPPVLSPKCYLYNNHQAKDCIDSFVTHCVRPFCSLIQIHGHNRARQRDKLGHILEEFATLQDEAEKVDAALHTMLLKQEPQRQHLACLGTWVLYHNLRIMIQYLLSGFELELYSMHEYYYIYWYLSEFLYAWLMSTLSRADGSQMAEERIMEEQQKGRSSKKTKKKKKVRPLSREITMSQAYQNMCAGMFKTMVAFDMDGKVRKPKFELDSEQVRYEHRFAPFNSVMTPPPVHYLQFKEMSDLNKYSPPPQSPELYVAASKHFQQAKMILENIPNPDHEVNRILKVAKPNFVVMKLLAGGHKKESKVPPEFDFSAHKYFPVVKLV [NAA35] | -0.305 | 51.5 | 51 | -0.198 | 0.213 | 0.348
MVPSSPAVEKQVPVEPGPDPELRSWRHLVCYLCFYGFMAQIRPGESFITPYLLGPDKNFTREQVTNEITPVLSYSYLAVLVPVFLLTDYLRYTPVLLLQGLSFVSVWLLLLLGHSVAHMQLMELFYSVTMAARIAYSSYIFSLVRPARYQRVAGYSRAAVLLGVFTSSVLGQLLVTVGRVSFSTLNYISLAFLTFSVVLALFLKRPKRSLFFNRDDRGRCETSASELERMNPGPGGKLGHALRVACGDSVLARMLRELGDSLRRPQLRLWSLWWVFNSAGYYLVVYYVHILWNEVDPTTNSARVYNGAADAASTLLGAITSFAAGFVKIRWARWSKLLIAGVTATQAGLVFLLAHTRHPSSIWLCYAAFVLFRGSYQFLVPIATFQIASSLSKELCALVFGVNTFFATIVKTIITFIVSDVRGLGLPVRKQFQLYSVYFLILSIIYFLGAMLDGLRHCQRGHHPRQPPAQGLRSAAEEKAAQALSVQDKGLGGLQPAQSPPLSPEDSLGAVGPASLEQRQSDPYLAQAPAPQAAEFLSPVTTPSPCTLCSAQASGPEAADETCPQLAVHPPGVSKLGLQCLPSDGVQNVNQ [SLC19A1] | 0.075 | 57 | 54.9 | -0.0504 | -3.67 | -3.7
MVQKESQATLEERESELSSNPAASAGASLEPPAAPAPGEDNPAGAGGAAVAGAAGGARRFLCGVVEGFYGRPWVMEQRKELFRRLQKWELNTYLYAPKDDYKHRMFWREMYSVEEAEQLMTLISAAREYEIEFIYAISPGLDITFSNPKEVSTLKRKLDQVSQFGCRSFALLFDDIDHNMCAADKEVFSSFAHAQVSITNEIYQYLGEPETFLFCPTEYCGTFCYPNVSQSPYLRTVGEKLLPGIEVLWTGPKVVSKEIPVESIEEVSKIIKRAPVIWDNIHANDYDQKRLFLGPYKGRSTELIPRLKGVLTNPNCEFEANYVAIHTLATWYKSNMNGVRKDVVMTDSEDSTVSIQIKLENEGSDEDIETDVLYSPQMALKLALTEWLQEFGVPHQYSSRQVAHSGAKASVVDGTPLVAAPSLNATTVVTTVYQEPIMSQGAALSGEPTTLTKEEEKKQPDEEPMDMVVEKQEETDHKNDNQILSEIVEAKMAEELKPMDTDKESIAESKSPEMSMQEDCISDIAPMQTDEQTNKEQFVPGPNEKPLYTAEPVTLEDLQLLADLFYLPYEHGPKGAQMLREFQWLRANSSVVSVNCKGKDSEKIEEWRSRAAKFEEMCGLVMGMFTRLSNCANRTILYDMYSYVWDIKSIMSMVKSFVQWLGCRSHSSAQFLIGDQEPWAFRGGLAGEFQRLLPIDGANDLFFQPPPLTPTSKVYTIRPYFPKDEASVYKICREMYDDGVGLPFQSQPDLIGDKLVGGLLSLSLDYCFVLEDEDGICGYALGTVDVTPFIKKCKISWIPFMQEKYTKPNGDKELSEAEKIMLSFHEEQEVLPETFLANFPSLIKMDIHKKVTDPSVAKSMMACLLSSLKANGSRGAFCEVRPDDKRILEFYSKLGCFEIAKMEGFPKDVVILGRSL [MGEA5] | -0.0358 | 52.8 | 52.4 | -0.112 | -1.09 | -0.671
MVRGRISRLSVRDVRFPTSLGGHGADAMHTDPDYSAAYVVIETDAEDGIKGCGITFTLGKGTEVVVCAVNALAHHVLNKDLKDIVGDFRGFYRQLTSDGQLRWIGPEKGVVHLATAAVLNAVWDLWAKQEGKPVWKLLVDMDPRMLVSCIDFRYITDVLTEEDALEILQKGQIGKKEREKQMLAQGYPAYTTSCAWLGYSDDTLKQLCAQALKDGWTRFKVKVGADLQDDMRRCQIIRDMIGPEKTLMMDANQRWDVPEAVEWMSKLAKFKPLWIEEPTSPDDILGHATISKALVPLGIGIATGEQCHNRVIFKQLLQAKALQFLQIDSCRLGSVNENLSVLLMAKKFEIPVCPHAGGVGLCELVQHLIIFDYISVSASLENRVCEYVDHLHEHFKYPVMIQRASYMPPKDPGYSTEMKEESVKKHQYPDGEVWKKLLPAQEN [ENOSF1] | 0.0883 | 54.7 | 55.1 | -0.108 | -0.19 | -1.12
